Test results from publication doi:10.1101/2021.06.07.447473.

Target: eIF2B(αβδγε)2 decamer, eIF2Bβ Avi-tagged and biotinylated (human) (UniProt Q14232)
Assay: SPR

## Sandfly Fever Sicilian virus (SFSV) NSs protein with C-terminal 6xHIS tag (NSs::6xHIS) (natural protein)
  Kd: 43 nM
